To fix the notation:
B1: CAN20G1 (antibody, V domains shown)
VH: QIQLVQSGPELKKPGETVKISCKASGYTFTNDGMNWVKQAPGKGLKWMGWINTNTGEPTYVEEFKGRFAFSLETSASTAYLQINNLKNEDTATYFCYVNYDYYTMDCWGQGTSVTVSS
VL: QVVLTQSPAIMSASLGERVTMTCTASSSVISSYLHWYQQKPGSSPKLWIYSTSTLASGVPARFSGSGSGTSYSLTISSMEAEDAATYYCLQYHRSPRTFGGGTKLEIK
B2: CAN20G8 (antibody, V domains shown)
VH: B1 VH with T28A, V61A
VL: B1 VL with T54I
B3: CAN20G5 (antibody, V domains shown)
VH: B1 VH with T28S, D32S, Q39E, V61A, K65M, M105I, C107Y
VL: B1 VL with V2I, I30Y, S32T, T54N, L90H
B4: CAN20G2 (antibody, V domains shown)
VH: B1 VH with L11V, D32Q, V61T, C107F
VL: B1 VL with E17D, S32T, A61P
B5: CDR-huCAN20G2 (antibody, V domains shown)
VH: QVQLVQSGSELKKPGASVKVSCKASGYTFTNQGMNWVRQAPGQGLEWMGWINTNTGEPTYAQGFTGRFVFSLDTSVSTAYLQISSLKAEDTAVYYCYVNYDYYTMDFWGQGTTVTVSS
VL: DIQMTQSPSSLSASVGDRVTITCRASSSVISTYLNWYQQKPGKAPKLLIYSTSSLQSGVPSRFSGSGSGTDFTLTISSLQPEDFATYYCLQYHRSPRTFGGGTKVEIK
B6: AVA-huCAN20G2 (antibody, V domains shown)
VH: B1 VH with D32Q, V61T, E62A, E63D, K65T, A76V, N85S, N88A, C107F, S113L
VL: DIQMTQSPSSLSASVGDRVTITCSASSSVISTYLNWYQQKPGKAPKVLIYSTSSLHSGVPSRFSGSGSGTDFTLTISSLQPEDFATYYCLQYHRSPRTFGQGTKVEIKR
B7: HE-huCAN20G2 (antibody, V domains shown)
VH: B1 VH with D32Q, V61T, E62A, E63D, K65T, A76V, N85S, N88A, C107F, S113L
VL: DVQLTQSPSIMSASLGDRVTMTCTASSSVISTYLHWYQQKPGSSPKLWIYSTSTLASGVPPRFSGSGSGTDYSLTISSMEPEDAATYYCLQYHRSPRTFGGGTKVEIKR

Results on seven molecules are retold here after US20170051047A1 (CANGENE, published 2017).

Positions count from the first letter of the chain named.

The target of the first experiment is T1, Clostridium difficile toxin B (whole) (Clostridium difficile, UniProt P18177 2-2366).
T1 construct: mature
Nature of the experiment: Western blot.
For B1, the binding result is listed as “no binding (tested: 1 µg/ml)”.

In the case of B2, the binding result was “no binding (tested: 1 µg/ml)”.

Regarding B3, the binding result is listed as “no binding (tested: 1 µg/ml)”.

In the next experiment the target is T2, Clostridium difficile toxin A (whole toxin A) (Clostridium difficile, UniProt P16154 1-2710). In words: cell-based or functional assay.
For B1, the “EC50 Value (µg/mL), in vitro toxin A neutralization” value (from here on “EC50 Value (µg/mL)”) amounted to 0.17 µg/mL.

Turning to B2, the “EC50 Value (µg/mL)” value came to 0.137 µg/mL.

For B3, the “EC50 Value (µg/mL)” value came to 0.13 µg/mL.

As for B4, the “EC50 Value (µg/mL)” value came out at 0.0101 µg/mL.

In the next experiment the target is T2, Clostridium difficile toxin A (whole …).
Assay: not given
For the molecule B5, the Kd – broadly, the free concentration of one partner at which half of the binding sites on the other are occupied at equilibrium, for simple one-to-one binding – was found to be 0.8 nM; the koff (as a rule, the first-order rate constant of dissociation) amounted to 5.41e-05 s⁻¹; the kon (in general, the rate constant with which the complex forms) came out at 67600 M⁻¹ s⁻¹.

As to B6, the equilibrium dissociation constant (Kd) came to 1.33 nM, the koff amounted to 9.02e-05 s⁻¹ and the association rate constant (kon) turned out to be 54500 M⁻¹ s⁻¹.

As for B7, the Kd was 0.332 nM, the dissociation rate constant (koff) is 3.14e-05 s⁻¹ and the kon is 93900 M⁻¹ s⁻¹.

A further experiment shares this target.
Assay: not given
This is another data set of the same source.
In turn, B1 returned a Kd of 1.79 nM, a koff of 0.000219 s⁻¹ and an on-rate constant (kon) of 123000 M⁻¹ s⁻¹.

As to B2, binding was characterised by a dissociation constant (Kd) of 1.65 nM, the koff came to 0.000216 s⁻¹ and the kon came to 131000 M⁻¹ s⁻¹.

Consider B3, for which the Kd is 2.01 nM, the koff is 0.000168 s⁻¹ and the kon was found to be 83800 M⁻¹ s⁻¹.
